# Test results from the supplement of paper PMC7125110.
# ± gives the standard error. This sample holds only a part of the variants without activity.
# B1: glmS ribozyme (parent)
# chain: AUAAAAGCGCCAGAACUACAGAAAUGUAGUUGACGAGGAGGAGGUUUAUCGAAUUUUCGGCGGAUGCCUCCAAA
# Variants of: B1
# Assay: self-cleavage kobs at 2500 uM GlcN6P; higher = faster cleavage; RNA array
# Conditions: with glucosamine-6-phosphate
# Outline: (§1)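 Tiles bearing barcoded ribozyme variants, transcribed in situ by E. coli RNA polymerase on sequenced MiSeq chips, were imaged over ~14 h at 37 °C using a hybridised Cy3 probe. Glucosamine-6-phosphate was supplied at 40 μM to 10 mM in HEPES/KCl/Mg(OAc)2 buffer. kobs came from one- or two-exponential decay fits to normalised per-tile medians, and weighted Michaelis–Menten fits then provided kcat and KM.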
row,Variant,self-cleavage kobs at 2500 uM GlcN6P
1,AUAAAAUCGCCAGAACUACAGAAAUGUAGUUGACGAGGAGGAGGUUUAUCGAAUCUUCGGCGGAUGCCUCAAAA [G7U U55C C71A],< 1e-05 s⁻¹
2,AUAAAAGCGCCAGAACUACAGAAAUGUAGGUGACGAGGAGGAGGUUUAUCGAAUUUACGGCGGAUGCCUCCAAA [U30G U57A],4.22e-05 ± 1.5e-05 s⁻¹
3,AUAAAAGCGCCAGAACUACAGAAAUGUAGGUGAAGAGGAGGAGGUUUAUCGAAUUUUCGUCGGAUGCCUCCAAA [U30G C34A G60U],< 1e-05 s⁻¹
4,AUAAAAGCGCCAAAACUACAGAAAUGUAGUUGACGAGGAGGAAGUUUACCGAAUUUUAGGCGGAUGCCUCCAAA [G13A G43A U49C C58A],< 1e-05 s⁻¹
5,AUAAAAGCGCCAGAACUACAGAAAUGUAGUAGACGGGGAGGAGGUUUAUCGAAUUUUCGGCGAUUGCCUCUAAA [U31A A36G G63A A64U C71U],< 1e-05 s⁻¹
6,AUAAAAGCGCCAGAACUACAGAAAUGUAGUUGACGAGGAGGAGGUUUAUGGCAUUUUCGGCGGAUGCCCACAAA [C50G A52C U69C C70A],0.000257 ± 8e-05 s⁻¹
7,AUAAAAGCGCCAGAACUACAGAAAUGUAGCUGACGAGGAGGAGGUUUAUCGAAUUUUCGGCGGAGGGCUCCAAA [U30C U65G C67G],0.000128 ± 3.3e-05 s⁻¹
8,AUAAAAGCGCCAGAAUUACAGAAAUGUAGUUGACGAGGAGGUGGUUUAUCGAAGUUUCGGCGGAUGCCUCCAAA [C16U A42U U54G],0.000152 ± 3e-05 s⁻¹
9,AUAAAAGAGCCAGAACUACAGAAAUGUAGUUGACGAGGAGGAGGUGUAUCGAAUAUUCGGCGGAUGCCUCCAAA [C8A U46G U55A],< 1e-05 s⁻¹
10,AUAAAAGCGCCAGCACUACAGAAAUGUAGUCGACGAGGAGGAGGUUUAUCGAACUUUCGGCGGAUGCCUCCAAA [A14C U31C U54C],0.0014 ± 0.00039 s⁻¹
11,AUAAAAGCGCCACAACUACAGAAAUGUAGUUGACGAGGAGGAGGUUUAUCGAAUAUUCGGCGGAUGCCUCCAAA [G13C U55A],6.85e-05 ± 1.6e-05 s⁻¹
12,AUAAAAGCGCCAGAACUACAGAAAUGUAGUUGACGAGGAGGAGUUUUAUGGAAUUGUCGGCGGAUGCCUCCAAA [G44U C50G U56G],< 1e-05 s⁻¹
13,AUAAAAGCGCCGGAACUACAGAAAUGUAGUUGACGAGGAGAAGGUUUAUAGAAUUUUCGGCGGAUGCCUCCAAA [A12G G41A C50A],< 1e-05 s⁻¹
14,AUAAAAGCGCCAGAACUACAGAAAUGUAGUUGACGAGGAGGAGGUUUAUCGUUUUUUCGGCAGAGGCCUCGAAA [A52U A53U G62A U65G C71G],< 1e-05 s⁻¹
15,AUAAAAGCGCCAGAACUACAGAAAUGUAGUUGACGAGGAGGCGGUUUGUGGAAUUUUCGGAGGAUGCCUUCAAA [A42C A48G C50G C61A C70U],< 1e-05 s⁻¹
16,AUAAAAGCGCCAGAACUACAGAAAUGUAGUUGACGAGCAGGAGGCUUAUACAAUUUUCGGCGGAUGUCUCCAAA [G38C U45C C50A G51C C67U],< 1e-05 s⁻¹
17,AUAAAAGCGCCAUAACUACAGAAAUGUAGUUGACGAGGAGGAGGUUUAUCGAAUAUUAGGCGGAUGCCUCCAAA [G13U U55A C58A],0.001 ± 0.00012 s⁻¹

row,Variant,self-cleavage kobs at 2500 uM GlcN6P
1,AUAAAAGCGCCAGACCUACAGAAAUGUAGUUGACGAGGAGGAGGUUUAUCGAAUUUACGGCGGAUGGCUCCAAA [A15C U57A C67G],5.01e-05 ± 2.4e-05 s⁻¹
2,AUAAAAGCUCCAGAACUACAGAAAUGUAGUUGACUACGAGGAGGUUUAUCCAAUUUUCGGCGGAUGCCUCCAAA [G9U G35U G37C G51C],< 1e-05 s⁻¹
3,AUAAAAGCGUCAGAACUACAGAAAUGUAGUUGACGAGGAGGCGGUUUAUCGAAUUUUCGGCAGAGGCUUCCAAA [C10U A42C G62A U65G C68U],< 1e-05 s⁻¹
4,AUAAAAGCGCCAGAACUACAGAAAUUUAGUUGACGCGGAGGAGGUUUAUCGAAUUUUCGGCGGAUGCCUCCAAA [G26U A36C],< 1e-05 s⁻¹
5,AUAAAAGCGCCAGAACUACAGAAAUGUAAUUGACGGGUAGGAGGUUUAUUGAAUUUUCGGCGGAUGCCUCCAAA [G29A A36G G38U C50U],< 1e-05 s⁻¹
6,AUAAAAGCGCCAGAACUACAGAAAUGUAGUUGACGAGGAGGAGGUUUAUCGAAUUUUCUGCGGCUCCCUCCAAA [G59U A64C G66C],< 1e-05 s⁻¹
7,AUAAAAGCGCCAGCACUACAGAAAUGUAGUUGACGAGGAGGAGGUUUAUCGAAUAUUCGGCGGAUGCAUCCAAA [A14C U55A C68A],6.41e-05 ± 2.5e-05 s⁻¹
8,AUAAAAGCGCCAGAACUACAGAAAUGUAGUUGACGGGGAGGAGGUUUAUCGAAUUUUCGUCGAAUGCAUCCAAA [A36G G60U G63A C68A],< 1e-05 s⁻¹
9,AUAAAAGCGCCAGAACUACAGAAAUGUAGUUGACGAGGAGGUGGUUUAUCGAAUUUUCGGGGGAUGCCGACAAA [A42U C61G U69G C70A],< 1e-05 s⁻¹
10,AUAAAAGCGCCAGAACUACAGAAAUGUAGUUGACGAGGAGGAGGUUAUUCGAAUAUUCGACGGAUGCCUCCAAA [U47A A48U U55A G60A],< 1e-05 s⁻¹
11,AUAAAAGCCCCAGAAGUACAGAAAUGUAGUUGACGAGGGGGAGGUUUAUCGAAUUUUCGGCGGAUGCCUCCAAA [G9C C16G A39G],< 1e-05 s⁻¹
12,AUAAAAGCGCCAGAACUACAGAAAUGUACUUGACGAGGAGGAGCUUUAUUGAAUUUUCGGCGGAUUCCUCCAAA [G29C G44C C50U G66U],< 1e-05 s⁻¹
13,AUAAAAGCGCAAGAACUACAGAAAUGUAGUUGACGAGGAGGAGGUUUAUCGUAUUUUCGGCGGACGCCUCCAAA [C11A A52U U65C],< 1e-05 s⁻¹
14,AUAAAAGCGCCAGAACUACAGAAAUGUAGUUGACGAGGAGGGGGUUUUUCGAAGUUUCGGCGGAUGCCUCCAAA [A42G A48U U54G],0.000367 ± 0.0001 s⁻¹
15,AUAAAAGCGCCGGAACUACAGAAAUGUAGUUCACGUGGAGGAGGUUUAUCGAAUUUUCGGCGGAUGCCUCCAAA [A12G G32C A36U],< 1e-05 s⁻¹
16,AUAAAAGCGCCAGAACUACAGAAAUGUAGUCGACAAGGAGGAGGUUUCUCGAAUUUUCGGCGGAUGCCUCCAAA [U31C G35A A48C],< 1e-05 s⁻¹
17,AUAAAAGCGCCAGAACUACAGAAAUGUAGUUGACGAGGAGGAGGUUUAUCGGAUUUUCGGAGGAUGUCUCCAAA [A52G C61A C67U],0.000197 ± 7.1e-05 s⁻¹

# Variants of: B1
# Assay: self-cleavage kobs at 10000 uM GlcN6P; higher = faster cleavage; RNA array
# Conditions: with glucosamine-6-phosphate
# Outline: as §1
row,Variant,self-cleavage kobs at 10000 uM GlcN6P
1,AUAAAAGCGCCAGAACUACAGAAAUGUAGGUGACGAGGAGGAGGUUUAUCGAAUUUACGGCGGAUGCCUCCAAA [U30G U57A],8.3e-05 ± 1.8e-05 s⁻¹
2,AUAAAAGCGCCAGAACUACAGAAAUGUAGCUGACGAGGAGGAGGUUUAUCGAAUUUUCGGCGGAGGGCUCCAAA [U30C U65G C67G],2.81e-05 ± 1.3e-05 s⁻¹
3,AUAAAAGAGCCAGAACUACAGAAAUGUAGUUGACGAGGAGGAGGUGUAUCGAAUAUUCGGCGGAUGCCUCCAAA [C8A U46G U55A],< 1e-05 s⁻¹
